Measured values from article PMC9664764 (iScience, 2022).

Target: T1, full-length Spike of SARS-CoV-2 on transfected 293T cells (SARS-CoV-2, UniProt P0DTC2)
T1 construct: also called Spike-expressing cells; Wuhan-hu-1 Spike
Experiment: flow cytometry on cells
Conditions: one partner purified

B1: Ab159 (antibody, V domains shown)
VH: QVQLVESGGGLVKPGGSLRLSCAASGFTFNNAWMSWVRQAPGKGLEWVGRIKSKTDGGTTDYAAPVKGRFTFSRDDSKNTLYLQMSSLKTEDTALYYCTTADYDILTGTPASPYWGQGTLVTVSS
VL: DIQMTQSPSSLSASVGDRVTITCRASQSITNYLNWYQQKPGKAPKFLIYAASSLQGGVPSRFRGSGSGTDFTLTISSLQPEDFATYYCQQTYSTLWTFGQGTKVEIK
notes: copies: 2 + 2
B1: binds.
